Assay [1] addresses T1, human APRIL protein (ACRO Biosystems, Cat. No.: APL-H52D1) (human, UniProt O75888 115-250, limits assumed).
T1 sequence (looked up): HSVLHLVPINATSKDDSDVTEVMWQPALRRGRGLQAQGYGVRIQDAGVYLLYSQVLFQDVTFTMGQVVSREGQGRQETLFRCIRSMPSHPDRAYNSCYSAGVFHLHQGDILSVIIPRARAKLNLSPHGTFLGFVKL
In words: BLI Octet RED96e, protein captured on AHC sensor, APRIL 100 nM in solution.

For assay [2], the target named is T2, human BAFF protein (ACRO Biosystems, Cat. No.: BAF-H52D4) (human, UniProt Q9Y275 134-285). In words: BLI Octet RED96e, protein captured on AHC sensor, BAFF 100 nM in solution. (In general: Biolayer interferometry detects binding as a change in optical thickness at a sensor tip.)
In assay [3] the target is T2, human BAFF protein (ACRO Biosystems, …). The assay can be described thus: BLI Octet RED96e, protein captured on AHC sensor, BAFF 1.56-100 nM in solution.
The target of assay [4] is T3, human BDCA2 protein (Kactus Biosystems, Cat# BCA-HM402) (human, UniProt Q8WTT0 45-213).
T3 construct: also called Human BDCA2-His
T3 sequence: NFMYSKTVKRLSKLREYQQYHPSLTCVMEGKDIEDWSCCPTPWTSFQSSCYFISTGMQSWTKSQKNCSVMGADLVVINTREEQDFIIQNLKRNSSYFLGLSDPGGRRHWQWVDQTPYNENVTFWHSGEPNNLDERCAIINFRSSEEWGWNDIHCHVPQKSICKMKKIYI
In words: BLI Octet RED96e, protein captured on AHC sensor, BDCA2 100 nM in solution.

Assay [5] addresses T2, human BAFF protein (ACRO Biosystems, …). The assay can be described thus: BLI Octet RED96e, protein captured on AHC sensor, BAFF 1.56-100 nM in solution. The source holds these as a separate data set.
The target of assay [6] is T1, human APRIL protein (ACRO Biosystems, …). In words: BLI Octet RED96e, protein captured on AHC sensor, APRIL 1.56-100 nM in solution.
The target is the same in assay [7]. The description is as above. The source holds these as a separate data set.
Assay [8] deals with T3, human BDCA2 protein (Kactus Biosystems, …). The assay can be described thus: BLI Octet RED96e, antibody captured on AHC sensor, BDCA2 100 nM in solution.
For assay [9] the target is unchanged. The assay can be described thus: BLI Octet RED96e, fusion protein captured on AHC sensor, BDCA2 1.56-100 nM in solution.
The target of assay [10] is T4, human FcRn protein (ACRO Biosystems, Cat. No.: FCM-H82W4) (human, UniProt P55899 24-297; P61769 21-119). The assay can be described thus: BLI Octet RED96e, FcRn on SA sensor, fusion protein 3.13-200 nM; binding pH 6.0, dissociation pH 7.4.
Assay [11] has as its target T4, human FcRn protein (ACRO Biosystems, …). The assay can be described thus: BLI Octet RED96e, FcRn on SA sensor, fusion protein 3.13-200 nM; binding pH 6.0, dissociation pH 6.0.
Assay [12] addresses T3, human BDCA2 protein (Kactus Biosystems, …). In words: BLI Octet RED96, antibody captured on AHC sensor, BDCA2 50 nM in solution.

Substitutions are numbered along the chain they refer to. Some results are limits rather than exact numbers.

T2 sequence (Q9Y275 134-285 limits assumed): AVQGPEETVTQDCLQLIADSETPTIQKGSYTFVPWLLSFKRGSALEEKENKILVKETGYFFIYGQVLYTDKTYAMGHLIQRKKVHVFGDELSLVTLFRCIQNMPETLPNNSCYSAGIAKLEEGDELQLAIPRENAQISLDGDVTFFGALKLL
T4 sequence (P55899 24-297 limits assumed, chain 1 of 2): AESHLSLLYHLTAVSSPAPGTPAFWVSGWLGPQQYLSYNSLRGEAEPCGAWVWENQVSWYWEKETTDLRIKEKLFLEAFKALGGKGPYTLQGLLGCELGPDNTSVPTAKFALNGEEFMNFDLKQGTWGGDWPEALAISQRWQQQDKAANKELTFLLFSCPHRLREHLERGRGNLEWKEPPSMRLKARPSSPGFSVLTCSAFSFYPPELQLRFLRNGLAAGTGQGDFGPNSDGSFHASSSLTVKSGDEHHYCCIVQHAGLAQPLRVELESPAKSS
T4 sequence (P61769 21-119 limits assumed, chain 2 of 2): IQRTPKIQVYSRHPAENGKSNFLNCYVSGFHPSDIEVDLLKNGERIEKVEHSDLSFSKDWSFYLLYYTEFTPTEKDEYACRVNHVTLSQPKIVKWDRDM

B1: control antibody telitacicept (Fc fusion)
chain: SRVDQEERFPQGLWTGVAMRSCPEEQYWDPLLGTCMSCKTICNHQSQRTCAAFCRSLSCRKEQGKFYDHLLRDCISCASICGQHPKQCAYFCENKLRSPVNLPPELDKTHTCPPCPAPEAEGAPSVFLFPPKPKDTLMISRTPEVTCVVVDVSHEDPEVKFNWYVDGVEVHNAKTKPREEQYNSTYRVVSVLTVLHQDWLNGKEYKCKVSNKALPSSIEKTISKAKGQPREPQVYTLPPSRDELTKNQVSLTCLVKGFYPSDIAVEWESNGQPENNYKTTPPVLDSDGSFFLYSKLTVDKSRWQQGNVFSCSVMHEALHNHYTQKSLSLSPGK
notes: TACI-Fc fusion control; also called TACI fusion protein telitacicept
One may read the Kd as a measure of binding affinity in units of concentration. High values mean lower affinity, low ones higher affinity. As usually defined, the koff is a measure of how fast the partners let go of each other. The low end stands for slow dissociation, the high end for fast dissociation. One may read the kon as the rate constant with which the complex forms. Low values mean slower complex formation, high ones faster complex formation. For the molecule B1, the Kd in [1] was 2.08 nM; in [2], 1.1 nM; in assay [3], 1.47 nM; in assay [5], 1.47 nM; in assay [6] it was 2.05 nM; in [7], 2.05 nM. The “Response (nm)” value in assay [1] is 0.199 nm; in assay [2] it was 0.319 nm; in assay [4], -0.0175 nm. Further, the koff in assay [1] was 0.00141 s⁻¹; in assay [2], 0.000262 s⁻¹; in assay [3], 0.000475 s⁻¹; in assay [5], 0.000475 s⁻¹; in assay [6], 0.00139 s⁻¹; in assay [7], 0.00139 s⁻¹. Further, the kon was 681000 M⁻¹ s⁻¹ in [1]; 239000 M⁻¹ s⁻¹ in [2]; 323000 M⁻¹ s⁻¹ in assay [3]; 95600 M⁻¹ s⁻¹ in assay [4]; 323000 M⁻¹ s⁻¹ in assay [5]; 678000 M⁻¹ s⁻¹ in assay [6]. For the same molecule, the kon in assay [7] was determined as 678000 M⁻¹ s⁻¹.

B2: anti-BDCA2 humanized antibody Hu37F2C6-8 (antibody, human IgG1, kappa, V domains shown)
VH: QVQLVQSGAEVKKPGASVKVSCKASGYTFTDFAVHWVRQAPGQRLEWMGLIGTSSGSTNYNQKFQGRVTMTVDKSANTAYMELSSLRSEDTAVYYCARNGYYVGYYALDYWGQGTTVTVSS
VL: ETVLTQSPATLSLSPGERATLSCRASSSVSYMYWFQQKPGQAPRLLIYSTSNLASGIPARFSGSGSGTDYTLTISSLEPEDFAVYYCQQRRNYPHTFGGGTKVEIKR
With B2, in assay [8], the Kd is less than 0.001 nM, the koff was less than 1e-07 s⁻¹ and the kon was 113000 M⁻¹ s⁻¹.

B3: anti-BDCA2 humanized antibody Hu37F2C6-9 (antibody, human IgG1, kappa, V domains shown)
VH: B2 VH with V68A
VL: B2 VL
notes: also called humanized 37F2C6-9
In assay [8], B3 showed a Kd of less than 0.001 nM, an off-rate constant (koff) of less than 1e-07 s⁻¹ and an association rate constant (kon) of 121000 M⁻¹ s⁻¹.

B4: bispecific fusion protein BI-9D2-A (bispecific antibody, human IgG1, kappa)
heavy: not shown
light: ETVLTQSPATLSLSPGERATLSCRASSSVSYMYWFQQKPGQAPRLLIYSTSNLASGIPARFSGSGSGTDYTLTISSLEPEDFAVYYCQQRRNYPHTFGGGTKVEIKRTVAAPSVFIFPPSDEQLKSGTASVVCLLNNFYPREAKVQWKVDNALQSGNSQESVTEQDSKDSTYSLSSTLTLSKADYEKHKVYACEVTHQGLSSPVTKSFNRGEC
notes: also called heavy chain 37F2C6-HuVH3-D2
On to B4, for which the Kd in [1] was 0.246 nM; in assay [2], less than 0.001 nM; in assay [4], less than 0.001 nM; in [9], less than 0.001 nM; in [5], less than 0.001 nM; in assay [6], 0.679 nM. Further, the entries for the “Response (nm)” value in [1], in assay [2] and in assay [4] were 0.252 nm, 0.338 nm and 0.481 nm, respectively. Besides, the koff was 0.000214 s⁻¹ in assay [1]; less than 1e-07 s⁻¹ in [2]; less than 1e-07 s⁻¹ in assay [4]; less than 1e-07 s⁻¹ in assay [9]; less than 1e-07 s⁻¹ in assay [5]; 0.00059 s⁻¹ in assay [6]. The kon in [1] worked out at 873000 M⁻¹ s⁻¹; in assay [2], 407000 M⁻¹ s⁻¹; in assay [4], 154000 M⁻¹ s⁻¹; in assay [9], 88800 M⁻¹ s⁻¹; in assay [5] it was 571000 M⁻¹ s⁻¹; in assay [6], 868000 M⁻¹ s⁻¹.

B5: bispecific fusion protein BI-9NTACI-A (bispecific antibody, human IgG1, kappa)
heavy: not shown
light: B4 light
notes: also called heavy chain 37F2C6-HuVH3-3N-TACI
Regarding B5, the equilibrium dissociation constant (Kd) is less than 0.001 nM in [9], 0.951 nM in [5] and 0.619 nM in assay [6]. The koff in assay [9] is less than 1e-07 s⁻¹; in assay [5] it was 0.000342 s⁻¹; in assay [6] it was 0.000478 s⁻¹. Also, the kon in [9] is 85400 M⁻¹ s⁻¹; in assay [5], 360000 M⁻¹ s⁻¹; in assay [6] it was 772000 M⁻¹ s⁻¹.

B6: bispecific fusion protein BI-9ND2-A (bispecific antibody, human IgG1, kappa)
heavy: not shown
light: B4 light
notes: also called heavy chain 37F2C6-HuVH3-3N-D2
Turning to B6, the Kd in [1] was less than 0.001 nM; in assay [2], less than 0.001 nM; in [4], less than 0.001 nM; in assay [9], less than 0.001 nM; in assay [5], 0.147 nM; in assay [6], 0.415 nM. Moreover, the Kd was 3140 nM in assay [10] and 20.1 nM in [11]. Also, the figures for the “Response (nm)” value in assay [1], in assay [2] and in assay [4] were 0.397 nm, 0.49 nm and 0.449 nm, respectively. The koff was less than 1e-07 s⁻¹ in [1]; less than 1e-07 s⁻¹ in assay [2]; less than 1e-07 s⁻¹ in [4]; less than 1e-07 s⁻¹ in [9]; 7.23e-05 s⁻¹ in assay [5]; 0.000321 s⁻¹ in [6]. In addition, the koff in assay [10] is 0.0842 s⁻¹; in assay [11] it was 0.035 s⁻¹. Also, the kon in assay [1] was determined as 722000 M⁻¹ s⁻¹; in assay [2], 438000 M⁻¹ s⁻¹; in [4], 112000 M⁻¹ s⁻¹; in assay [9], 86600 M⁻¹ s⁻¹; in assay [5], 492000 M⁻¹ s⁻¹; in assay [6], 774000 M⁻¹ s⁻¹. Besides, the kon in assay [10] amounted to 26800 M⁻¹ s⁻¹; in assay [11], 1.74e+06 M⁻¹ s⁻¹.

B7: anti-BDCA2 chimeric antibody 26H10A11-1 (antibody, human IgG1, kappa, V domains shown)
VH: DVKLVESGGGLVKPGGSLKLSCAASGFTFSSSTMSWVRQTPEKRLEWVATTGGGGSYTYNPDSVKGRFTISRDNAKNTLYLQMSSLRSEDTAMYYCTRDRYDGYYFSMDFWGQGTSVTVSS
VL: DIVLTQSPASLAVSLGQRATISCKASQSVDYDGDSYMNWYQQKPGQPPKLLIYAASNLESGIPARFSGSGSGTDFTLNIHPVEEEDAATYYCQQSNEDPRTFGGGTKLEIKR
On to B7, for which, in assay [12], binding was put at a Kd of 0.503 nM, the dissociation rate constant (koff) came to 6.16e-05 s⁻¹ and the kon was 123000 M⁻¹ s⁻¹.

B8: anti-BDCA2 chimeric antibody 37F2C6 (antibody, human IgG1, kappa, V domains shown)
VH: QVLLQQSGPELVRPGVSVKVSCKGSGYTFTDFAVHWVKQSQTKSLEWIGLIGTSSGSTNYNQKFKDKATMTVDKSSNTAYLELARLTSEDSAIYYCARNGYYVGYYALDYWGQGTSVTVSS
VL: QTVLTQSPAIMSASPGEKVTITCSASSSVSYMYWFQQKPGTSPKLWIYSTSNLASGVPPRFSGSGSGTSYSLTISRMEAEDAATYYCQQRRNYPHTFGGGTKLEIKR
In assay [12], B8 had a Kd of less than 0.001 nM, a koff of less than 1e-07 s⁻¹ and a kon of 161000 M⁻¹ s⁻¹. In assay [8], this molecule returned a Kd of less than 0.001 nM, a koff of less than 1e-07 s⁻¹ and a kon of 141000 M⁻¹ s⁻¹.
